Results as given in the supplement of paper PMC10899765.

What was measured:
Conditions in all cases: 20 nM; 72 h
[1] = tested on: MCF10A; assay: percent viability (nuclei count relative to siNT); higher = more viable cells
Description: (§1)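 After 72 h, cells were fixed and stained with Hoechst and anti-fibrillarin, and nucleoli per nucleus were counted with CellProfiler. Values are plate-adjusted percent effect for the one-nucleolus and 5+ nucleoli phenotypes, normalised to siNT (0%) and to the positive controls siNOL11 or siKIF11 (100%), as the mean of biological triplicates. Percent viability is the nuclei count relative to siNT.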

[2] = tested on: MCF10A; assay: 5+ nucleoli phenotype percent effect (relative to siNT 0% and siKIF11 100%); higher = more cells with five or more nucleoli
Description: as §1

[3] = tested on: MCF10A; assay: one-nucleolus phenotype percent effect (relative to siNT 0% and siNOL11 100%); higher = more cells with one nucleolus (ribosome biogenesis inhibition)
Description: as §1

Sequence	percent viability [1] [%]	5+ nucleoli phenotype percent effect [2] [%]	one-nucleolus phenotype percent effect [3] [%]
UAUAAAAUGAGGGCAGUAAGAC [hsa-miR-3163]	53	30.5	-19.2
AACCAUCGACCGUUGAGUGGAC [hsa-miR-181c-3p]	71	-21.2	16.6
CCGUGUUUCCCCCACGCUUU [hsa-miR-3676-3p]	72.3	-17.2	4.15
AUGCGAGGAUGCUGACAGUG [hsa-miR-4737]	28.3	-33.6	35.7
CUAUACAGUCUACUGUCUUUCC [hsa-let-7f-2-3p]	70.8	4.65	-3.58
UGGAGGAGAAGGAAGGUGAUG [hsa-miR-765]	21.1	16.3	26.5
AUGGCCAGAGCUCACACAGAGG [hsa-miR-4435]	68	40.9	-11.4
AGACACUAUACGAGUCAUAU [hsa-miR-3117-5p]	120	12.6	0.975
CACAAGGUAUUGGUAUUACCU [hsa-miR-624-3p]	21.1	-46.2	71
AAACUAAUCUCUACACUGCUGC [hsa-miR-3129-3p]	98.8	5.92	-4.83
CACUCAGCCUUGAGGGCACUUUC [hsa-miR-512-5p]	43.4	-15.2	16.2
AAUGUGUAGCAAAAGACAGA [hsa-miR-511-3p]	18.7	-40.6	55.2
GGGAAGAGCUGUACGGCCUUC [hsa-miR-6077]	37.4	-35.5	32.5
AUCAUAGAGGAAAAUCCAUGUU [hsa-miR-376b-3p]	144	52.2	-20.4
CCACUUGGAUCUGAAGGCUGCCC [hsa-miR-3614-5p]	32.9	-32.4	36.9
UCCAGUACCACGUGUCAGGGCCA [hsa-miR-770-5p]	55.6	-28.6	29.4
UGAGGUGGUAGGAUGUAGA [hsa-miR-6134]	12	-36	40.7
UGCGGGGCUAGGGCUAACAGCA [hsa-miR-744-5p]	12	-35.1	53.9
AUCUGACCUGAUGAAGGU [hsa-miR-4256]	11.7	5.64	30.3
ACCUUCCUCUCCAUGGGUCUUU [hsa-miR-3667-3p]	32	-21.3	18.2
UCAGGUGUGGAAACUGAGGCAG [hsa-miR-3934-5p]	42.8	-10.9	10.5
GAGCCCCUCUCUGCUCUCCAG [hsa-miR-6769a-3p]	92.9	9.99	-15.3
CUGGGACAGGAGGAGGAGGCAG [hsa-miR-4298]	67.8	39.2	-17.4
CACUGUUUCCUUUCUGAGUGGA [hsa-miR-892c-3p]	93.2	-29.1	1.69

Sequence	percent viability [1] [%]	5+ nucleoli phenotype percent effect [2] [%]	one-nucleolus phenotype percent effect [3] [%]
CCUCCCACACCCAAGGCUUGCA [hsa-miR-532-3p]	38.6	23.9	5.19
CUUCCUCGUCUGUCUGCCCC [hsa-miR-1238-3p]	74.5	-4.82	13.2
AGGGACUUUUGGGGGCAGAUGUG [hsa-miR-365a-5p]	56	58.6	-13.1
CUAUAUAUCAAACAUAUUCCU [hsa-miR-190a-3p]	67.4	35.7	-19.5
UCUGGCUCCGUGUCUUCACUCCC [hsa-miR-149-5p]	32.7	-2.69	30.7
ACUGAUUAUCUUAACUCUCUGA [hsa-miR-3920]	82	38.1	-37.8
GUCCCUGAGUGUAUGUGGUG [hsa-miR-670]	47.5	48	-27.4
UUCAACAAGGGUGUAGGAUGG [hsa-miR-7159-5p]	105	14.1	-19.4
UAAUGCCCCUAAAAAUCCUUAU [hsa-miR-365b-3p]	37.9	-12.3	5.41
CACACAGGAAAAGCGGGGCCCUG [hsa-miR-6768-5p]	55.7	24.4	-20.7
UUCCCAGCCAACGCACCA [hsa-miR-7977]	63.8	20.4	-23.2
AGCCAAGUGGAAGUUACUUUA [hsa-miR-4480]	21.9	-37.2	33.8
UAGCACCAUUUGAAAUCAGUGUU [hsa-miR-29b-3p]	63.7	20.2	-20.6
AAAAGUAAUUGCGGUUUUUGC [hsa-miR-548au-5p]	100	42.7	-19.4
CCUCCCAUGCCAAGAACUCCC [hsa-miR-2116-3p]	95.6	58.4	-24.7
AAGUAGUUGGUUUGUAUGAGAUGGUU [hsa-miR-1244]	44.6	-0.297	12.3
AGGCUGUGAUGCUCUCCUGAGCCC [hsa-miR-7974]	22.8	-12	30.5
UGACACGGAGGGUGGCUUGGGAA [hsa-miR-4462]	82.7	14.9	-18.7
UGGAUUUUUGGAUCAGGGA [hsa-miR-1290]	51	-26.7	7
CAGUGCCUCGGCAGUGCAGCCC [hsa-miR-33b-3p]	107	24.5	-17.8
UGCCCCAACAAGGAAGGACAAG [hsa-miR-5699-5p]	43.1	43.5	-18.9
AGGCCUCUGUGACGUCACGGUGU [hsa-miR-4757-5p]	62.5	66.8	-11.7
CUGUGGGCUCAGCGCGUGGGG [hsa-miR-4322]	31.3	-30.6	28.2
AGCGUGGGAUGUCCAUGAAGUCAG [hsa-miR-6853-5p]	71.7	90.6	-26.6
